Measurements: patent US20180362582A1 (SOCPRA SCIENCES SANT ET HUMAINES S E C, published 2018)
Blank lines part the entries; values can stand above or below the binder they belong to. Numbered stars: 1 amine (or outer) side, 2 acyl side, 3 side chain; on linkers, the order of the positions; unused ones are H or OH. Bridge positions count the residues as written; N and C are the ends. Square brackets hold non-standard residues; d marks the D form. Ends that are not written are not given here. * marks the point of attachment. nonenoic acid = non-8-enoic acid residue (acyl cap with no amine) whose terminal alkene closes the ring by metathesis with the o-allyl-tyrosine, C=CCCCCCCC(=O)*; Tyr(3-All) = 3-allyl-tyrosine (allyl on ring carbon ortho to the phenol OH), C=CCc1cc(C[C@H](N[*:1])C(=O)[*:2])ccc1O[*:3]; OctenylA = alpha-methyl-octenylalanine = 2-(7-octenyl)alanine; 6‑(allylamino)hexanoyl = C=CCNCCCCCC(=O)*

Columns and labels:
[1] = molecular target: T1, rat NTS2-YFP receptor (rat, UniProt Q63384 1-416); test: displacement of radiolabeled neurotensin from rNTS2-YFP membranes by a single 1 µM dose
T1 construct: whole, on cells; Used as cell membranes of transfected DRG-F11 cells; also called rNTS2-YFP; rNTS2
T1 sequence (Q63384 whole entry, looked up): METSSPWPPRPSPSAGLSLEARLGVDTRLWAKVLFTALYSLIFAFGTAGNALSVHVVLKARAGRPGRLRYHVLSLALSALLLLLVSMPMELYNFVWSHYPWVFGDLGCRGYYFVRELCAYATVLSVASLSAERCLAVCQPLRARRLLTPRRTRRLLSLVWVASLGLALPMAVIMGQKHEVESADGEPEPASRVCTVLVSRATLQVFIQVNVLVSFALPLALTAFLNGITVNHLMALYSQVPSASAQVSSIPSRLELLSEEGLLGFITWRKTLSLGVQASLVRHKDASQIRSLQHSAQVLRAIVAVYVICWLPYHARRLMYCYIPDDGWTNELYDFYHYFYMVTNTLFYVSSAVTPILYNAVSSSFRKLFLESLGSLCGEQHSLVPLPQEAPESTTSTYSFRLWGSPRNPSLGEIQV
Experimental: (§1) DRG-F11 cells were cultured in DMEM supplemented with 10% FBS, 100 U/mL penicillin, 100 μg/mL streptomycin, and 20 mM HEPES. DRG-F11 were seeded at 2.2×10⁶ cells in a 10 cm Petri dish and transfected 24 h after plating with 10 μg of DNA coding for the rat NTS2-YFP receptor using Xtreme Gene™ HP as a transfection agent. Membrane preparation was conducted 48 h after transfection, as described below.
(§2) Transfected cells expressing the rNTS2-YFP receptor were used 48 h after transfection. Membranes were prepared by scraping cells off the culture dish with 50 mM Tris ph 7.5 and centrifuged at 15,000 g for 5 min at 4° C. The pellet was resuspended in 10 mM Tris, 1 mM EDTA pH 7.5 and sonicated for 30 s prior to be centrifugated at 15,000 g for 30 min at 4° C. The pellet was then re-suspended in binding 9 buffer. […] All other steps in binding experiments were unchanged comparing to the one using the NTS1 receptor.

[2] = molecular target: T1, rat NTS2-YFP receptor; test: competitive radioligand binding, 125I-[Tyr3]-NT, DRG-F11 membranes expressing rNTS2-YFP
Experimental: as §1, §2

[3] = molecular target: T2, hNTS1 receptor (human (printed as hNTS1), UniProt P30989 1-418); test: cell-based or functional assay
[4] = molecular target: hNTS1-Green fluorescent protein 10(GFP10) (human (printed as hNTS1), UniProt P30989 1-418); test: cell-based or functional assay
[5] = molecular target: T2, hNTS1 receptor; test: competitive radioligand binding, 125I-[Tyr3]-NT, CHO-K1 membranes expressing hNTS1
[6] = molecular target: T2, hNTS1 receptor; test: competitive radioligand binding, 125I-[Tyr3]-NT, CHO-K1 membranes expressing hNTS1; Ki by Cheng-Prusoff
[7] = molecular target: rat NTS2-YFP receptor (rat, UniProt Q63384 1-416); test: displacement of radiolabeled neurotensin from rNTS2-YFP membranes by a single 1 µM dose
Experimental: as §1, §2

T2 sequence (P30989 whole entry): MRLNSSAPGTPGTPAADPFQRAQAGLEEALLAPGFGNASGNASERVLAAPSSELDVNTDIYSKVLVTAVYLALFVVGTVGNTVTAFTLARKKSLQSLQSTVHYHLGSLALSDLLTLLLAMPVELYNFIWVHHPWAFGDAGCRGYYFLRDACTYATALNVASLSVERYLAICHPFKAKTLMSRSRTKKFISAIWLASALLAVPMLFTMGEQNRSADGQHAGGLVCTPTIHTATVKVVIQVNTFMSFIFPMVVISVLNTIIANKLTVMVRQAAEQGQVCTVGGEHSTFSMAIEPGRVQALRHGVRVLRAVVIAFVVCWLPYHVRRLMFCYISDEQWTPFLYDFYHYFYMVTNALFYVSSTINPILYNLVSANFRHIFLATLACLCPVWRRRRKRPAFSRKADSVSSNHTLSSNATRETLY
hNTS1-Green fluorescent protein 10(GFP10), sequence (P30989 whole entry): as above

B1: 9 c[K(butenyl)KPY(All)]IL (peptide)
peptide: XKPXIL
modifications: residue 1 is N-butenyl-lysine; Tyr is o-allyl-tyrosine; the two joined by ring-closing metathesis; 24 ring atoms
notes: also called compound 9
% displ at 1 µM [1]: 104% | IC50 [2]: 47.2 nM

B2: 10 c[K(pentenyl)KPY(All)]IL (peptide)
peptide: XKPXIL
modifications: residue 1 is N-pentenyl-lysine; Tyr is o-allyl-tyrosine; the two joined by ring-closing metathesis; 25 ring atoms
notes: also called compound 10
% displ at 1 µM [1]: 105% | IC50 [2]: 128 nM

B4: NT 8-13 RRPYIL (peptide)
peptide: RRPYIL
notes: also called neurotensin (8-13)
% displ at 1 µM [7]: 100%

Now from value to binder:

EC50 G13 [3]: 433 nM | EC50 β-arr1 [4]: 1500 nM | IC50 [5]: 394 nM | Ki [6]: 5.6 µM
B3: 1-M (or 1) c[nonenoic acid KPY(All)]IL (peptide)
peptide: {nonenoic acid}-KP[Tyr(3-All)]IL
modifications: staple (positions not given here); not fully specified (bridges)
notes: Macrocycle; E and Z isomers were not separated; also called compound 1

% displ at 1 µM [1]: 96%
B5: 3 c[OctenylAKPY(All)]IL (peptide)
peptide: [OctenylA]KPXIL
modifications: staple 1-4; not fully specified (residue 4); printed as 3 c[OctenylAKPY(All)]IL
notes: Diastereoisomer of compound 12; also called compound 3

EC50 β-arr1 [4]: 96 nM | % displ at 1 µM [1]: 93% | Ki [6]: 0.656 µM | IC50 [2]: 2300 nM
B6: 6 c[aminohex-6-enoic acid(All)KPY(All)]IL (peptide)
peptide: {6‑(allylamino)hexanoyl}-KP[Tyr(3-All)]IL
modifications: staple (positions not given here); not fully specified (bridges)
notes: also called compound 6
